Source: article PMC3877283, “Development of Novel Radiogallium-Labeled Bone Imaging Agents Using Oligo-Aspartic Acid Peptides as Carriers” (PLoS ONE, 2013)
Peptide text beside a SMILES is read from it. * marks the point of attachment. DOTA = O=C(O)CN1CCN(CC(=O)O)CCN(CC(=O)*)CCN(CC(=O)O)CC1

assay: Biodistribution experiments in normal mice; type: in vivo, ddY mice; conditions: mouse, in vivo, iv
Method: Experiments with animals were conducted in strict accordance with the Guidelines for the Care and Use of Laboratory Animals of Kanazawa University. The animal experimental protocols used were approved by the Committee on Animal Experimentation of Kanazawa University (Permit Number: AP-132633). Biodistribution experiments were performed after an intravenous administration of each diluted tracer solution (37 kBq/100 µL) to 6-week-old male ddY mice (27–32 g, Japan SLC, Inc., Hamamatsu, Japan). To investigate the effect of an excess amount of bisphosphonate on biodistribution, alendronate (20 mg/kg) was intravenously administered to mice 1 minute before the intravenous injection of ^67Ga-DOTA-(Asp)14 or ^67Ga-DOTA-Bn-SCN-HBP. Four to six mice each were sacrificed by decapitation at 10, 60, and 180 minutes post-injection. Tissues of interest were removed and weighed. Complete left femurs were isolated as representative bone samples, radioactivity was determined using an auto well gamma counter, and counts were corrected for background radiation and physical decay during counting.

Row | Structure (SMILES) | accumulation of radioactivity in the femur (in words)
1 | O=C(O)C[C@H](NC(=O)[C@H](CC(=O)O)NC(=O)[C@H](CC(=O)O)NC(=O)[C@H](CC(=O)O)NC(=O)[C@H](CC(=O)O)NC(=O)[C@H](CC(=O)O)NC(=O)[C@H](CC(=O)O)NC(=O)[C@H](CC(=O)O)NC(=O)CN1CCN(CC(=O)O)CCN(CC(=O)O)CCN(CC(=O)O)CC1)C(=O)O [67Ga-DOTA-(Asp)8, metal not drawn] ({DOTA}-DDDDDDDD-OH) | higher accumulation
2 | O=C(O)C[C@H](NC(=O)[C@H](CC(=O)O)NC(=O)[C@H](CC(=O)O)NC(=O)[C@H](CC(=O)O)NC(=O)[C@H](CC(=O)O)NC(=O)CN1CCN(CC(=O)O)CCN(CC(=O)O)CCN(CC(=O)O)CC1)C(=O)O [67Ga-DOTA-(Asp)5, metal not drawn] ({DOTA}-DDDDD-OH) | moderate accumulation
3 | O=C(O)C[C@H](NC(=O)[C@H](CC(=O)O)NC(=O)CN1CCN(CC(=O)O)CCN(CC(=O)O)CCN(CC(=O)O)CC1)C(=O)O [67Ga-DOTA-(Asp)2, metal not drawn] ({DOTA}-Asp-Asp-OH) | hardly accumulated in the femur
